Data reported in US5514538A, “Bicarbonate assay and phosphoenolpyruvate carboxylase enzyme from hyphomicrobium” (Genzyme Limited, priority 1990, dated 1996).
Counter-ions that a name gives are not always drawn. Like-named read-outs stand apart in the source and are kept apart here.

Legend:
[1] = Specific activity of PEPC (malate dehydrogenase/NADH-coupled assay, A340); type: biochemical
Procedure: (a) Lysis is performed with a solution of Triton X-100, a non-ionic detergent. It is added to resuspended cells (10% w/v) at 1% v/v. Lysis usually takes about 1 to 1.5 hours at 15° to 20° C. Once lysis is complete, the cell debris is removed by centrifugation with the aid of streptomycin sulphate.
(§1) (b) Column chromatography involves the use of a strong anion exchanger such as Fractogel-TMAE, DEAE sepharose, Q sepharose, DE 52 or QA 52.
(§2) For a large volume of enzyme solution, the absorption can be is carried out as a batch up-take. The gel also has a batch wash prior to packing into the column for a gradient elution.
(§3) The gradient is of increasing salt concentration. The active fractions are pooled to give a specific activity of >30 U/mg but some fractions contain enzyme of 60 U/mg protein.
Lyophilised PEPC powder is obtained, having the following characteristics:
A 167 mM Tricine. HCl buffer, pH 8.0, containing 16.7 mM MgCl2
B 20.7 mM sodium bicarbonate in Reagent A
C 217 mM phosphoenolpyruvate in Reagent A
D 10 mM NADH solution, the concentration of which is checked in the following way:
1 Dispense 0.98 ml of Reagent A into a cuvette and zero a spectrophotometer set at 340 nm with this cuvette
2 Add 0.02 ml of Reagent D to this cuvette and mix thoroughly
E 700 U/ml malate dehydrogenase
1 Adjust spectrophotometer to 340 nm and 25° C.
2 Prepare a reagent cocktail as follows:
Into a 50 ml beaker dispense; 46.0 ml Reagent B 1.0 ml Reagent C
This cocktail is stable for 8 hr when stored at 4° C.
3 Dispense 0.94 ml of the reagent cocktail into a cuvette together with 0.02 ml of Reagent D, and 0.02 ml of Reagent E
Incubate the cuvette in the spectrophotometer at 25° C. to attain temperature equilibration and then establish background rate, if any
4 Dilute the enzyme to approximately 1.5 U/ml in reagent A, and initiate the reaction by adding 0.02 ml of this solution to the cuvette
5 Calculate the change in absorbance (ΔA/rain) over the linear portion of the reaction [formula]

[2] = isolated enzyme
[3] = Effect of pH on the enzyme activity (buffers and pH changed); type: biochemical
Source text: The effect of pH on the enzyme activity was checked by changing the buffers as well as pH values. Once again, at pH 7 Bis-tris was used.

[4] = Effect of temperature on the activity of PEPC; type: biochemical; conditions: 167 mM tricine pH 7.0, 1 mM MgCl2
Procedure: The effect of temperature on the activity of PEPC was evaluated. Lyophilised enzyme was resuspended in 167 mM tricine buffer pH 7.0 containing 1 mM MgCl2 at a concentration of 300 u/l. The enzyme was then assayed at the desired temperature using the recommended reagents.

[5] = Storage of enzyme on anion exchange gel: recovery and pool specific activity; type: physicochemical
Procedure: as §1, §2, §3
If stored for longer, then the recoveries begin to decrease.

[6] = Stability of reconstituted enzyme with azide; type: physicochemical
Procedure: The enzyme was stored in assay buffer (167 mM Tricine/HCl with 15 mM MgCl2, pH 8.0).

[7] = pH 7
[8] = lyophilised
Procedure: Stability trials have been conducted on lyophilised enzyme, at 4° C., 25° C. and 37° C.
All recoveries are based on specific activity to rule out weighing errors.

[9] = pH stability of enzyme solutions stored at 25° C.; type: physicochemical
Procedure: For pH 6.0, 8.0 and 9.0, 150 mM Tricine+1 mM MgCl2 was used. For pH 7.0 150 mM bis-tris+1 mM MgCl2 was chosen. Solutions were stored at 25° C.

[10] = Effect of pH on the activity of PEPC; type: biochemical
Procedure: The effect of pH on the activity of PEPC was evaluated. Lyophilised enzyme was resuspended (10 mg/ml)) in 167 mM Tricine pH 8.0 (+1 mM MgCl2) and diluted to a concentration of 1 u/ml. The enzyme was then assayed in the following buffer systems. At pH 6.0, 8.0 and 9.0 Tricine (150 mM) was used. At pH 6.5 and 7.0 bis-tris (150 mM) was used.

Hyphomicrobium PEPC [11] = conditions: pH 8.0, 167 mM Tricine buffer + 1 mM MgCl2
Procedure: The effect of bicarbonate on the activity of PEPC was evaluated at pH 8.0 in 167 mM Tricine buffer+1 mM MgCl2.

PEPC = assay: Effect of calcium and Mg^2+ on PEPC activity; type: biochemical, Hyphomicrobium
Hyphomicrobium PEPC [12] = assay: Km of Hyphomicrobium PEPC with phosphoenol pyruvate salts; type: biochemical; conditions: pH 7.0 and 25° C.
Procedure: The Km's of Hyphomicrobium PEPC were checked with both sodium bicarbonate and phosphoenol pyruvate as substrates.
The result is 0.91 mM for the tricyclohexylammonium salt.

[13] = after anion exchange gradient elution

For phosphoenolpyruvate carboxylase [PEPC], the “specific activity of pooled active fractions” value [1, 13] was over 30 U/mg, the “specific activity of some fractions” value [1, 13] was 60 U/mg protein and the Powder activity ([1]; lyophilised PEPC powder) was over 10 U/mg. For the same compound, the Specific activity ([1]; lyophilised PEPC powder) was over 25 U/mg Protein, the pH profile [2] was “broad pH profile” and the “% activity recovered” value ([3]; pH 6) was 65.5%. For the same compound, the “% activity recovered” value ([3]; pH 6.5) was 74.5%, the “% activity recovered” value ([3]; pH 7.0, Bis-tris) was 100% and the “% activity recovered” value ([3]; pH 8.0) was 88.2%. For the same compound, the “% activity recovered” value ([3]; pH 9.0) was 74.5%, the relative activity ([4]; 20° C.) was “approximately 10%” and the relative activity ([4]; 50° C.) was 100%. The relative activity ([4]; 55° C.) was “approximately 10%”, the “Pool S/A” value ([5]; 0 days stored on gel) was 37.4 U/mg and the Total recovery ([5]; 0 days stored on gel) was 91%. The “Pool S/A” value ([5]; 2 days stored on gel) was 33.0 U/mg, the Total recovery ([5]; 2 days stored on gel) was 85% and the “Pool S/A” value ([5]; 4 days stored on gel) was 28.1 U/mg. For the same compound, the Total recovery ([5]; 4 days stored on gel) was 76%, the “Pool S/A” value ([5]; 8 days stored on gel) was 26.9 U/mg and the Total recovery ([5]; 8 days stored on gel) was 60%. For the same compound, the “loss of activity on gel” value ([5]; held on the gel overnight) was “no loss of activity”, the “% activity recovered” value ([6]; pH 8.0, 4 days, 4° C.) was 94% and the “% activity recovered” value ([6]; pH 8.0, 4 days, 25° C.) was 104%. The “% activity recovered” value ([6]; pH 8.0, 4 days, 37° C.) was 2%, the “% activity recovered” value ([6]; pH 8.0, 7 days, 4° C.) was 96% and the “% activity recovered” value ([6]; pH 8.0, 7 days, 25° C.) was 92%. For the same compound, the “% activity recovered” value ([6]; pH 8.0, 7 days, 37° C.) was 0%, the “% activity recovered” value ([6]; pH 8.0, 14 days, 4° C.) was 94% and the “% activity recovered” value ([6]; pH 8.0, 14 days, 25° C.) was 93%. The “% activity recovered” value ([6]; pH 8.0, 30 days, 4° C.) was 100%, the “% activity recovered” value ([6]; pH 8.0, 30 days, 25° C.) was 86% and the “% activity recovered” value ([6]; pH 8.0, 42 days, 4° C.) was 105%. The “% activity recovered” value ([6]; pH 8.0, 42 days, 25° C.) was 85%, the “% activity recovered” value ([6]; pH 8.0, 63 days, 4° C.) was 105% and the “% activity recovered” value ([6]; pH 8.0, 63 days, 25° C.) was 66%. The stability and activity [7] was “better stability and activity”, the “% activity recovered” value ([8]; 0 days, 4° C.) was 100% and the “% activity recovered” value ([8]; 0 days, 25° C.) was 100%. The “% activity recovered” value ([8]; 0 days, 37° C.) was 100%, the “% activity recovered” value ([8]; 3 days, 25° C.) was 95% and the “% activity recovered” value ([8]; 3 days, 37° C.) was 97%. The “% activity recovered” value ([8]; 7 days, 4° C.) was 83%, the “% activity recovered” value ([8]; 7 days, 25° C.) was 83% and the “% activity recovered” value ([8]; 7 days, 37° C.) was 87%. For the same compound, the “% activity recovered” value ([8]; 10 days, 25° C.) was 94%, the “% activity recovered” value ([8]; 10 days, 37° C.) was 91% and the “% activity recovered” value ([8]; 18 days, 4° C.) was 92%. For the same compound, the “% activity recovered” value ([8]; 18 days, 25° C.) was 88%, the “% activity recovered” value ([8]; 18 days, 37° C.) was 90% and the “% activity recovered” value ([8]; 24 days, 25° C.) was 90%. The “% activity recovered” value ([8]; 24 days, 37° C.) was 87%, the “% activity recovered” value ([8]; 50 days, 4° C.) was 114% and the “% activity recovered” value ([8]; 77 days, 4° C.) was 110%. The “% activity recovered” value ([9]; pH 6, 7 days, Tricine) was 69%, the “% activity recovered” value ([9]; pH 6, 12 days, Tricine) was 45.5% and the “% activity recovered” value ([9]; pH 7, 7 days, bis-tris) was 99%. The “% activity recovered” value ([9]; pH 7, 12 days, bis-tris) was 78.2%, the “% activity recovered” value ([9]; pH 8, 7 days, Tricine) was 81.8% and the “% activity recovered” value ([9]; pH 8, 12 days, Tricine) was 67.3%. The “% activity recovered” value ([9]; pH 9, 7 days, Tricine) was 78.2%, the “% activity recovered” value ([9]; pH 9, 12 days, Tricine) was 56.4% and the relative activity ([10]; pH 6.0, Tricine (150 mM)) was “approximately 70%”. The relative activity ([10]; pH 6.5, bis-tris (150 mM)) was about 85%, the relative activity ([10]; pH 7.0, bis-tris (150 mM)) was about 115% and the relative activity ([10]; pH 8.0, Tricine (150 mM)) was about 100%. For the same compound, the relative activity ([10]; pH 9.0, Tricine (150 mM)) was about 90%.
For O=C(O)O [bicarbonate, sodium bicarbonate], the Km (Hyphomicrobium PEPC [11]) was 1300 µM and the Km (Hyphomicrobium PEPC [11]; read-out: Km (probable, without dissolved carbon dioxide from the atmosphere)) was under 1000 µM.
For [Mg+2] [Mg^2+], the “activation of the enzyme” value (PEPC) was “only effective activator of the enzyme” and the “activation, chloride vs sulphate” value (PEPC; chloride compound compared with sulphate) was “works better as the chloride compound than as the sulphate”.
In the case of C=C(OP(=O)(O)O)C(=O)O [tricyclohexylammonium salt, phosphoenol pyruvate], the Km (Hyphomicrobium PEPC [12]) is reported as 910 µM and the “Km, comparison of PEP salts” value (Hyphomicrobium PEPC [12]) is reported as “very similar”.
With [Ca+2] [calcium] the “effect on PEPC activity” value (PEPC; low concentrations) was “inhibitory effect”.
